Test results as given in patent publication US20250263468A1 (CELLTRION, published 2025).
Numbering of substitutions follows the chain as printed.

B1: antibody No. 32 (fully human antibody, full IgG) (antibody, V domains shown)
VH: EVQLVQSGGGLIQPGGSLRLSCAASEFIVSSNYMTWVRQAPGKGLEWVSIIYPGGSTYYADSVKGRFTISRDNSKNTLYLRMNSLRAEDTAVYYCARDLPLTGTTLDYWGQGTLVTVSS
VL: not shown
B2: antibody No. 48 (fully human antibody, full IgG) (antibody, V domains shown)
VH: EVQLVQSGGGLIQPGGSLRLSCAASGFTVSSNYMSWVRQPPGKGLEWVSVIYPGGSTFFADSVQGRFTISRDNSKNTLYLQMNSLRAEDTAVYYCARSYDFLTDYTDAFDIWGQGTMVTVSS
VL: ELELTQPPSVSGAPGQRVTISCTGSSSNIGAGYDVHWYQQLPGTAPKLLIYGNSNRPSGVPDRFSGSKSGTSASLAITGLQAEDEADYYCQSYDSSLSGLWVFGGGTKLTVQ
B3: antibody No. 53 (fully human antibody, full IgG) (antibody, V domains shown)
VH: B2 VH
VL: not shown
B4: antibody No. 61 (fully human antibody, full IgG) (antibody, V domains shown)
VH: EVQLLESGGALVQPGRSLRLSCAASGFTFDDYAMHWVRQGPGKGLEWVSGTTWNSGTIGYADSVKGRFIISRDNAENSLYLQMNSLRPEDTALYYCAKDIGSGDRPDAFHLWGQGTMVTVSS
VL: ELVLTQPPSVSVAPGKTARITCGGNNIGSKSVHWYQQKPGQAPVLVVYDDSDRPSGIPERFSGSNSGNTATLTISRVEAGDEADYYCQVWDSSSDRVVFGGGTKVTVL
B5: antibody No. 33 (fully human antibody, full IgG) (antibody, V domains shown)
VH: EVQLVESGGGVVQPGRSLRLSCAASGLTFSDYGMHWVRQAPGKGLEWVAAISYDGSNKYYADSVKGRFTISRDNSKNTVYLQMNSLRAEDTAVYYCVRDSGLYGSGWSTYQYYAMDVWGQGTTVTVSS
VL: B4 VL with P7S, R96H
B6: antibody No. 54 (fully human antibody, full IgG) (antibody, V domains shown)
VH: EVQLLESGGGLVQPGRSLRLSCAASGFNFDDYAMHWVRQAPGKGLEWVSGISWNSGTIGYADSVKGRFIISRDNAKNSLYLQMRSLKPEDTALYYCAKEELGPYSNRWYSSSDGMDVWGQGTTVTVSS
VL: ELVLTQPPSVSGAPGQRVTISCTGSSSNIGAGYDVHWYQQLPGTAPKLLIYGNSNRPSGVPDRFSGSKSGTSASLAITGLQAEDEADYYCQSYDSSLSGVVFGGGTKLTVL
B7: antibody No. 34 (fully human antibody, full IgG) (antibody, V domains shown)
VH: QVQLVQSGAEVKKPGSSVKVSCKTSGGTFSNYPLTWVRQAPGQGLEWLGGIIPIIGATNYAQKFQGRVTITADESTSTAFMELSSLRSEDTAVYYCARGRGYSGYGAAYYFDYWGQGTLVTVSS
VL: B6 VL with V3E, V100W, L108V
B8: antibody No. 45 (fully human antibody, full IgG) (antibody, V domains shown)
VH: EVQLVQSGAEVKKPGSSVKVSCKASGGTFSSYDISWVRQAPGQGLEWMGGIIPILGIPNYAQKFQGRVTITADESTSTAYMELSSLRSEDTAVYYCARSRGYSGYGANWYFDLWGRGTLVTVSS
VL: B6 VL with L4V, D87E, V100P
B9: antibody No. 81 (fully human antibody, full IgG) (antibody, V domains shown)
VH: QVQLVQSGGGVVQPGRSLRLSCAASGFTFSSFAMHWVRQAPGKGLEWVAVISFDGSNKYYADSVKGQFTISRDNSKNTLYLQMNSLRAEDTAVYYCARGDYYGSGSYYNPSPFFDYWGQGTLVTVSS
VL: not shown
B10: antibody No. 37 (fully human antibody, full IgG) (antibody, V domains shown)
VH: EVQLVQSGAEVKKPGESLKISCRGSGYSFTSHWIAWVRQMPGKGLEWMGIIYPGDSDSRYSPSFQGQVTISADKSISTAYLQWSSLKASDTAIYYCARGPNLYNWFDSWGQGTLVTVSS
VL: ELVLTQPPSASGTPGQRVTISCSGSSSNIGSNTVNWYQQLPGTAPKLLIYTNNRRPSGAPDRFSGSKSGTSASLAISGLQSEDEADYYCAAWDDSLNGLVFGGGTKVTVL
B11: antibody No. 59 (fully human antibody, full IgG) (antibody, V domains shown)
VH: QVQLQESGPGLVKPSETLSLTCTVSGDSISGSSYYWGWIRQPPGKGLEWIGNIFYSGSTYYNPSLKSRVTISVDTPKNQFSLKLSSVTAADTAMYYCARGSRGYYDILTGYSTGGFDYWGQGTLVTVSS
VL: ELQMTQSPATLSVSPGEGATLSCRASQSVSSNLAWYQHKPGQAPRLLIYDASTRATGIPARFSGSGSGTEFTLTISSLQSEDFAVYYCQQYNNWPLTFGGGTKLEIK

molecular target: SARS-CoV-2 spike D614 (pseudovirus) (SARS-CoV-2, UniProt P0DTC2 14-1273); assay: cell-based or functional assay

In the case of B1, the “IC50, pseudovirus neutralization” value is reported as 4.34 ng/mL.

molecular target: T1, SARS-CoV-2 virus surface protein (RBD), wild type (SARS-CoV-2, UniProt P0DTC2 319-536); assay: BLI (Octet), full IgG against SARS-CoV-2 RBD
Method: The binding affinity (equilibrium dissociation constant, KD) of each fully human antibody to SARS-CoV-2 RBD was evaluated by biolayer interference (BLI) assay using Octet.

First: B2
Second: B3
The Kd of the first is 18-fold lower: 0.184 nM for the first, 3.39 nM for the second.

Going from B4 to B5, the Kd rises from 0.0226 nM to 0.0431 nM (1.9-fold).

First: B6
Second: B7
The Kd of the first is 5.9-fold lower: 0.0313 nM for the first, 0.185 nM for the second.

Compared with B8, B9 is 1.7-fold lower in Kd: 0.0708 nM for the first, 0.0428 nM for the second. The second binds more tightly here.

Compared with B1, B10 is 2.6-fold lower in Kd: 0.147 nM for the first, 0.057 nM for the second.

Work on B11 yielded a Kd of 0.0496 nM.

molecular target: T1, SARS-CoV-2 virus surface protein (RBD), …; assay: BLI (Octet), full IgG against RBD WT

Compared with B6, B1 is 2.3-fold higher in Kd: 0.133 nM for the first, 0.305 nM for the second.

Compared with B6, B1 is 1.8-fold higher in koff: 0.000108 s⁻¹ for the first, 0.000193 s⁻¹ for the second.

B6 and B1 are within 1.5-fold of each other in kon: 815000 M⁻¹ s⁻¹ for the first, 633000 M⁻¹ s⁻¹ for the second.
